The record followed here is PMC12810918.

For one data set, the system named is N=C(N)NCCC[C@H](N)C(=O)O. Description: purified protein. The settings on record: 40 mM Hepes pH 7.0, 0-20 mM arginine.
Substrate in data set [1]: N=C(N)NCCC[C@H](N)C(=O)O
Description: colorimetric determination of citrulline formation. In kind it is biochemical, Giardia duodenalis. The conditions noted are these: 40 mM Hepes pH 7.0, 0-20 mM arginine. An excerpt: colorimetric determination of citrulline formation on ADIB (recombinant ADI, assemblage B, isolate GS) | recombinantly expressed ADIAI, ADIAII and ADIB in bacteria and determined the Km values

Take “ADIE (recombinant ADI, assemblage E, isolate P15) (Giardia lamblia P15)”: in the data set with N=C(N)NCCC[C@H](N)C(=O)O, the Km was 340 ± 30 µM.

B1: ADIB (recombinant ADI, assemblage B, isolate GS) (Giardia duodenalis ATCC 50581) (protein)
chain: MTDFTKDKEKLAQATQGGETERAEIVVVHLPQGTSFLTSLNPEGNLLEESMCPDELKRDHEGFQAILKEKGCRVYMPYDVLSEASPAEREVLMDQAMASLKYEFHPSGARITPKMKYCVSDEYKRKVLSALSNRNLVDVILSEPVIHLIPGVRNTALVTKSVEIHDSNNMVFMRDQQITTRRGVVMGQFQAPQRRREQVFALIFWKRLGVRVVGDCREGGPHCMLEGGDFIPASPGLTMMGVGLRSTYVGARYLMSKDLLGTRRFAVVKDCFDQHQDRMHLDCTCSIIHDKLVVLDEYICSGMGLRYVDEWIDIGAEAAKKAKSSAVICGTYALVKANVEFQQWLDENGYTIIRIPHEYQLAYGCNNLNLGNNCVLSVHQPTIDFIKASPAYISYCKSHNLSNGLDLVYVPFRGITRMYGSLHCASQVIYRTPATPATVKACEQEGDGLAAIYEKNGEPVDAAGKNFDCVLYIPSTVDDLVDSLGISLGDDVAPSREIIADVHKLYQKLISEGRVPYITWRMPSMPVVSLKGAARAGSLKAILDKIPQLPSFTPKVVDGAPAAYTRYLGLEQADICIDIS
With B1, in data set [1], the Michaelis-Menten constant (Km) was 360 ± 20 µM and the kcat is 1.99 ± 0.16 s⁻¹.
